Measured values from article PMC8068644.

Assay: immunoblot, full-length as % of total β1AR, CHO-Pro5
Conditions: glycan lost

Q: With β1-adrenergic receptor (β1AR): S37A as the substance, how does the other: N-terminal proteolytic cleavage, other: decrease in full-length β1AR (control: WT-β1AR) read?
A: Its other: N-terminal proteolytic cleavage, other: decrease in full-length β1AR is 21.7%.

Q: Which other: N-terminal proteolytic cleavage, other: decrease in full-length β1AR (control: WT-β1AR) does the source give for β1-adrenergic receptor (β1AR): S41A here?
A: The other: N-terminal proteolytic cleavage, other: decrease in full-length β1AR was 56.8%.

Q: For “β1-adrenergic receptor (β1AR): S41A in 31H32A/52A53A backbone”, which other: N-terminal proteolytic cleavage, other: decrease in full-length β1AR (control: 31H32A/52A53A-β1AR) is on record?
A: Its other: N-terminal proteolytic cleavage, other: decrease in full-length β1AR is 69.7%.
